Key:
Assay type in all cases: physicochemical
[1] = Peptide concentration in emulsions prepared with different stirring times; settings: initial concentration in emulsion
Procedure: Emulsions according to this invention were prepared as described in Example 5, using different stirring times.

[2] = Chemical stability of the emulsion (peptide content by LC/MS); settings: for Content after 2 month at 5° C.: emulsion of Example 5, 2 month at 5° C.; for Content after 2 month at 25° C.: emulsion of Example 5, 2 month at 25° C.; for Content after 2 month at −20° C.: emulsion of Example 5, 2 month at −20° C.; for Initial content: emulsion of Example 5, initial
Procedure: The chemical stability of the peptides contained in the emulsion prepared according to Example 5 is assessed by means of the following method.
A sample of 0.9 g of the emulsion of Example 5 is accurately weighted and mixed with 0.1% TFA in DMSO so as to fill a 5 mL volumetric flask. The mixture is then vortexed for 2 minutes and centrifuged for 7 minutes at 4000 rpm. The lower layer is then analyzed by Liquid Chromatography/Mass Spectroscopy (LC/MS) using the following chromatographic conditions:
Column: Advance Bio Peptide Mapping LC column, 2.1×250 mm, 2.7 μm, C18, 120 Å, Agilent® reference n° 651750-902 or equivalent
Column temperature: 35° C.±2° C.
Sample temperature: 5° C.
Needle wash: 0.1% Trifluoroacetic acid (TFA) in dimethylsulfoxide (DMSO)
Mobile phase: Eluent A: 0.2% TFA in 5% acetonitrile
• Eluent B: 0.2% TFA in 95% acetonitrile Gradient table: […]
A standard solution is prepared by transferring 0.9 mL of the batch suspension described in Example 1 with 1.1 mL of Montanide ISA 51 in a 10.0 mL volumetric flask, then vortexing and centrifuging the mixture as described above. The lower layer thus obtained is analyzed in the same conditions as above.
The concentration of each peptide is expressed in mg/g using the formula:
[formula] where: A: is the peak area of each peptide in the sample solution S: is the peak area of each peptide in the standard solution W: is the sample weight expressed in g

[3] = Comparative experiment: emulsion made with high shear mixer, consistency and peptide oxidation; settings: high shear mixer batches at 5000 and 8000 rpm
Procedure: The suspension prepared as described in Example 1 was mixed with the same adjuvant, in the same ratio, except that mixing was conducted by means of a high shear mixer (Silverson® Verso) having a rotor-stator configuration. […] Other batches obtained with the same mixer at 5000 and 8000 rpm led to peptide degradation. Specifically, 8.5% oxidation of peptide […] (SEQ ID NO: 5) was noted after 6 weeks storage at 4° C. and still 2% oxidation at −20° C.

Substance | Concentration ([1]; stirring time 5 minutes) [µg/mL] | Concentration ([1]; stirring time 10 minutes) [µg/mL] | Concentration ([1]; stirring time 15 minutes) [µg/mL] | Content after 2 month at 5° C. [2] [mg/g] | Content after 2 month at 25° C. [2] [mg/g] | Content after 2 month at −20° C. [2] [mg/g] | Initial content [2] [mg/g] | oxidation ([3]; after 6 weeks storage at 4° C.) [%] | oxidation ([3]; storage at −20° C.) [%]
SMPPPGTRV [MPS-103] | 530 | 560 | 540 | 0.54 | 0.54 | 0.55 | 0.55 | 8.5 | 2
RLLQETELV [MPS-112] | 560 | 570 | 560 | 0.55 | 0.55 | 0.55 | 0.57 | – | –
LLTFWNPPV [MPS-213] | 560 | 560 | 560 | 0.54 | 0.54 | 0.55 | 0.56 | – | –
YLSGADLNL [MPS-200] | 570 | 570 | 570 | 0.56 | 0.55 | 0.56 | 0.58 | – | –
IMIGHLVGV [MPS-214] | 530 | 530 | 530 | 0.51 | 0.50 | 0.51 | 0.53 | 16.5 | 4
aKXVAAWTLKAAa [MPS-7, peptide with X and a respectively indicating cyclohexylalanine and d-alanine] | 580 | 580 | 570 | 0.56 | 0.56 | 0.56 | 0.58 | – | –
KLBPVQLWV [MPS-102] | 560 | 570 | 560 | 0.55 | 0.55 | 0.55 | 0.57 | – | –

— patent publication US11981713B2, “Method for manufacturing a stable emulsion for peptide delivery” (OSE IMMUNOTHERAPEUTICS, priority 2017, dated 2024)
